According to the supplement of paper PMC9170038:

System: MS2 coat protein
Test: apparent KD of MS2 coat protein; higher = weaker reporter binding
Conditions: Eterna round: R107
Procedure: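 RNA-MaP round R107: designed RNA switches with theophylline, tryptophan, arginine or FMN aptamers are transcribed on-chip within common flanks. They are titrated with SNAP-549-labelled MS2 coat protein in RNA-MaP buffer (100 mM Tris pH 7.5, 80 mM KCl, 4 mM MgCl2), without ligand or with the indicated ligand. Median apparent KD per design.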

[1] = input ligand: theophylline 20 uM
[2] = input ligand: theophylline 2 mM
[3] = input ligand: tryptophan 2.4 mM

Sequence | apparent KD of MS2 coat protein (input ligand: arginine 13.2 mM) [nM] | apparent KD of MS2 coat protein (input ligand: none) [nM] | apparent KD of MS2 coat protein [1] [nM] | apparent KD of MS2 coat protein [2] [nM] | apparent KD of MS2 coat protein [3] [nM]
ACCUGUACGAAAAGUGCAGGACAUGGUAAACGAGGACCGGUACGGCCGCCACUCGAAGAAAACAAGUGGAUCACCCUUGUCCAUG [TrypAS 4 #AlternativeMS2 #Zipper #StaticStem] | 292 | 622 | 641 | 2090 | 1350
UCUGGGUCCGCAAGGACCUGGAGUUGCGAUACCAGCACGGUAACGUGCCCUUGGCAGCGCACAUGAGGAUCACCCAUGUGGUGUU [#1 Exclusion - Theophylline A Attempt #17 (HarryS)] | 86.6 | – | 365 | – | 204
GUGUGCGGCACGGCCGCCACUGCGGUGGUGUGACAUGAGGAUCACCCAUGUUGUCAUGCGGCCCUUAGGACCGGGUGGCGUGCAC [#1 Exclusion - Tryptophan B Attempt #17 (HarryS)] | 27.4 | 37.3 | 61.2 | 50.4 | 46.5
ACGUAAUGCAGAAGGAGCGUCUAUGUGUUACAUGAGGAUCACCCAUGUGUUAUGUUAUGUGGACAGGUAGGUCGCUGAAGUACGA [JR_SSArginiB_Sub005] | 45 | 127 | 104 | 134 | 81
ACGGAUCGGAAACGAUCCGCGGCGAGGGUGCGAGGACCGGUACGGCCGCCACUCGGGUAACAUGAGGAUCACCCAUGUCCGAAGA [ETA NuPACK+Vienna+Vienna2 #10 Same Structure] | 35.8 | 55 | 60.3 | 106 | 209
AAGGUGAUCCGUGAUACCAGCUCAACAUGAGGAUCACCCAUGUAACGGACGAAAGUCCGGAGCCCUUGGCAGCACGGUAAUAAUA [(M)'-(Theo1)-(Ms2)-(Theo2)-(M'')_Design2b] | 10.4 | – | 15.1 | – | 11.6
UUCUACAUGAGGAUCACCCAUGUGGGUGAUACCAGCACUUUUUGGUGCCCUUGGCAGCACAUGAGAAUACCGUACGAUCGGUGAU [Isbiti] | 103 | – | 559 | – | 508
AAACAUGAGGAUCACCCAUGUUCAAUAGAUACCAGUGAUACGGUGCACCCUUGGCAGCUGUUGCUGAGUGAUGGUUCCCUCGGUA [#24 SameState-TheophyllineA] | 19.9 | – | 32.9 | – | 27.1
UCAUACAUGAGGAUCACCCAUGUUCGUGGGCGAGGACCGGUACGGCCGCCACUCGUACUAACGGUUUCUUAAACUUCCUUUCGAG [theeternabot_sameState_MS2_Trp_A_49] | 28.3 | – | 41.2 | 40.4 | –
GAACAUAAGGAUACUAUAAUAAGUACAGAAGGAGCGAGCGGAAGCUCAGGUAGGUCGCUGGGUAACAUGAGGAUCACCCAUGUUG [SSArg A #14 Road to perfection1] | 23.1 | 21.4 | 37 | 37 | 15.6
ACAUGAGGACCGGAUACCAGCCACACAACAUGAGGAUCACCCAUGUCCCAUGUAUGAGGAGGCCCUUGGCAGCCGACAUACAUGA [Exclusion - Theophylline B #1] | 48.2 | 77.3 | 157 | 398 | 78.1
GGGUGGUAGGCGGCCGCCACUGAUUUUUAUUUAUAGAUGACAUGAGGAUCACCCAUGUUUAUGUGCAGGACCGGGCCUGUUGUGG [aaaR] | 12.2 | 16.1 | 15.2 | 15.6 | 13.9
UGGUACAUGAGGAUCACCCAUGUUCCAGAUACCAGCGUCCCGGUGCGCCCUUGGCAGCUGGUGGUACAUGAGGAUCACCCAUGUG [Exclusion Theophylline A GF14] | 35.2 | 40.2 | 50 | 61.2 | 44.9
AACAUGAGGAUCACCCAUGUCCCAUGUGAACGAGGACCGGUACGGCCGCCACUCGAAUGAGGCGGCACAUGAGGAUCACCCACAU [whbob_SS_trypto A_2s11] | 95.7 | – | 233 | 237 | –
CAAUAGAUAGCGGCCGCCACUUACUCAUGAGGUAACAACAUGAGGAUCACCCAUGUUUGAGGAUCAAGGACCGGGCUAUUUAUUG [AstrosSSTryB#7] | 29.1 | 27.5 | 39.1 | 31.9 | 19.1
